To fix the notation:
B1: Homeobox protein cut-like 1, residues 941 to 1008; numbered along this chain, P39880 (parent)
chain: QEVDTIELTRQVKEKLAKNGICQRIFGEKVLGLSQGSVSDMLSRPKPWSKLTQKGREPFIRMQLWLNG

± gives the uncertainty stated by the source.

The variants in the data set derive from B1. Put plainly: abundance fitness (aPCA) (normalised: wild type 0, dead -1); higher = more abundant; growth selection in yeast, the domain comes from the species named. The settings on record: Homo sapiens.
As to QEVDTIELTRQVKEKLAKNGICQRIFGEKVLGLSQGSVSDMLSEPKPWSKLTQKGREPFIRMQLWLNG [R44E], the abundance fitness was -0.176 ± 0.072.

On to QEVDTIELTRQVKEKLAKNGICQRIFGEKVLGLSQGSVSDMLSNPKPWSKLTQKGREPFIRMQLWLNG [R44N], for which the abundance fitness worked out at 0.054 ± 0.097.

Turning to QEVDTIELTRQVKEKLAKNGICQRIFGEKVLGLSQGSVSDMLSVPKPWSKLTQKGREPFIRMQLWLNG [R44V], the abundance fitness is -0.175 ± 0.063.

With QEVDTIELTRQVKEKLAKNGICQRIFGEKVLGLSQGSVSDMLSHPKPWSKLTQKGREPFIRMQLWLNG [R44H], the abundance fitness was -0.125 ± 0.1.

For the variant QEVDTIELTRQVKEKLAKNGICQRIFGEKVLGLSQGSVSDMLSYPKPWSKLTQKGREPFIRMQLWLNG [R44Y], the abundance fitness was -0.029 ± 0.099.

Regarding QEVDTIELTRQVKEKLAKNGICQRIFGEKVLGLSQGSVSDMLSCPKPWSKLTQKGREPFIRMQLWLNG [R44C], the abundance fitness was -0.007 ± 0.078.

With QEVDTIELTRQVKEKLAKNGICQRIFGEKVLGLSQGSVSDMLSIPKPWSKLTQKGREPFIRMQLWLNG [R44I], the abundance fitness was -0.189 ± 0.1.

As to QEVDTIELTRQVKEKLAKNGICQRIFGEKVLGLSQGSVSDMLSPPKPWSKLTQKGREPFIRMQLWLNG [R44P], the abundance fitness was -0.314 ± 0.072.

QEVDTIELTRQVKEKLAKNGICQRIFGEKVLGLSQGSVSDMLSFPKPWSKLTQKGREPFIRMQLWLNG [R44F]: the abundance fitness was -0.041 ± 0.09.

Regarding QEVDTIELTRQVKEKLAKNGICQRIFGEKVLGLSQGSVSDMLSKPKPWSKLTQKGREPFIRMQLWLNG [R44K], the abundance fitness was 0.098 ± 0.094.

Regarding QEVDTIELTRQVKEKLAKNGICQRIFGEKVLGLSQGSVSDMLSGPKPWSKLTQKGREPFIRMQLWLNG [R44G], the abundance fitness was -0.118 ± 0.044.

For QEVDTIELTRQVKEKLAKNGICQRIFGEKVLGLSQGSVSDMLSAPKPWSKLTQKGREPFIRMQLWLNG [R44A], the abundance fitness turned out to be 0 ± 0.058.

With QEVDTIELTRQVKEKLAKNGICQRIFGEKVLGLSQGSVSDMLSQPKPWSKLTQKGREPFIRMQLWLNG [R44Q], the abundance fitness is -0.241 ± 0.085.

As to QEVDTIELTRQVKEKLAKNGICQRIFGEKVLGLSQGSVSDMLSDPKPWSKLTQKGREPFIRMQLWLNG [R44D], the abundance fitness was 0.12 ± 0.12.

Consider QEVDTIELTRQVKEKLAKNGICQRIFGEKVLGLSQGSVSDMLSRPCPWSKLTQKGREPFIRMQLWLNG [K46C], for which the abundance fitness was -0.369 ± 0.13.

As for QEVDTIELTRQVKEKLAKNGICQRIFGEKVLGLSQGSVSDMLSRPLPWSKLTQKGREPFIRMQLWLNG [K46L], the abundance fitness is -0.07 ± 0.05.

QEVDTIELTRQVKEKLAKNGICQRIFGEKVLGLSQGSVSDMLSRPAPWSKLTQKGREPFIRMQLWLNG [K46A]: the abundance fitness is -0.075 ± 0.065.

As for QEVDTIELTRQVKEKLAKNGICQRIFGEKVLGLSQGSVSDMLSRPRPWSKLTQKGREPFIRMQLWLNG [K46R], the abundance fitness was -0.099 ± 0.048.

As for QEVDTIELTRQVKEKLAKNGICQRIFGEKVLGLSQGSVSDMLSRPTPWSKLTQKGREPFIRMQLWLNG [K46T], the abundance fitness is -0.205 ± 0.074.

As to QEVDTIELTRQVKEKLAKNGICQRIFGEKVLGLSQGSVSDMLSRPPPWSKLTQKGREPFIRMQLWLNG [K46P], the abundance fitness stood at 0.112 ± 0.071.

On to QEVDTIELTRQVKEKLAKNGICQRIFGEKVLGLSQGSVSDMLSRPFPWSKLTQKGREPFIRMQLWLNG [K46F], for which the abundance fitness is -0.227 ± 0.13.

With QEVDTIELTRQVKEKLAKNGICQRIFGEKVLGLSQGSVSDMLSRPSPWSKLTQKGREPFIRMQLWLNG [K46S], the abundance fitness was 0.009 ± 0.058.

Turning to QEVDTIELTRQVKEKLAKNGICQRIFGEKVLGLSQGSVSDMLSRPNPWSKLTQKGREPFIRMQLWLNG [K46N], the abundance fitness is -0.461 ± 0.089.

As for QEVDTIELTRQVKEKLAKNGICQRIFGEKVLGLSQGSVSDMLSRPEPWSKLTQKGREPFIRMQLWLNG [K46E], the abundance fitness is -0.013 ± 0.055.

Take QEVDTIELTRQVKEKLAKNGICQRIFGEKVLGLSQGSVSDMLSRPIPWSKLTQKGREPFIRMQLWLNG [K46I]: the abundance fitness was -0.184 ± 0.11.

Consider QEVDTIELTRQVKEKLAKNGICQRIFGEKVLGLSQGSVSDMLSRPMPWSKLTQKGREPFIRMQLWLNG [K46M], for which the abundance fitness was -0.15 ± 0.059.

For QEVDTIELTRQVKEKLAKNGICQRIFGEKVLGLSQGSVSDMLSRPGPWSKLTQKGREPFIRMQLWLNG [K46G], the abundance fitness is -0.315 ± 0.051.

As for QEVDTIELTRQVKEKLAKNGICQRIFGEKVLGLSQGSVSDMLSRPQPWSKLTQKGREPFIRMQLWLNG [K46Q], the abundance fitness is -0.041 ± 0.06.

In the case of QEVDTIELTRQVKEKLAKNGICQRIFGEKVLGLSQGSVSDMLSRIKPWSKLTQKGREPFIRMQLWLNG [P45I], the abundance fitness is -0.147 ± 0.088.

For QEVDTIELTRQVKEKLAKNGICQRIFGEKVLGLSQGSVSDMLSREKPWSKLTQKGREPFIRMQLWLNG [P45E], the abundance fitness was -0.526 ± 0.13.

As to QEVDTIELTRQVKEKLAKNGICQRIFGEKVLGLSQGSVSDMLSRVKPWSKLTQKGREPFIRMQLWLNG [P45V], the abundance fitness was -0.139 ± 0.063.

As to QEVDTIELTRQVKEKLAKNGICQRIFGEKVLGLSQGSVSDMLSRAKPWSKLTQKGREPFIRMQLWLNG [P45A], the abundance fitness is -0.233 ± 0.084.

On to QEVDTIELTRQVKEKLAKNGICQRIFGEKVLGLSQGSVSDMLSRYKPWSKLTQKGREPFIRMQLWLNG [P45Y], for which the abundance fitness was -0.282 ± 0.077.

As to QEVDTIELTRQVKEKLAKNGICQRIFGEKVLGLSQGSVSDMLSRRKPWSKLTQKGREPFIRMQLWLNG [P45R], the abundance fitness is -0.184 ± 0.051.

For the variant QEVDTIELTRQVKEKLAKNGICQRIFGEKVLGLSQGSVSDMLSRKKPWSKLTQKGREPFIRMQLWLNG [P45K], the abundance fitness is -0.161 ± 0.089.

Take QEVDTIELTRQVKEKLAKNGICQRIFGEKVLGLSQGSVSDMLSRSKPWSKLTQKGREPFIRMQLWLNG [P45S]: the abundance fitness was -0.063 ± 0.057.

As for QEVDTIELTRQVKEKLAKNGICQRIFGEKVLGLSQGSVSDMLSRMKPWSKLTQKGREPFIRMQLWLNG [P45M], the abundance fitness is -0.269 ± 0.076.

Turning to QEVDTIELTRQVKEKLAKNGICQRIFGEKVLGLSQGSVSDMLSRTKPWSKLTQKGREPFIRMQLWLNG [P45T], the abundance fitness is -0.224 ± 0.067.

As to QEVDTIELTRQVKEKLAKNGICQRIFGEKVLGLSQGSVSDMLSRQKPWSKLTQKGREPFIRMQLWLNG [P45Q], the abundance fitness is -0.461 ± 0.078.
